The values that follow come from patent publication US20090068207A1, “Compositions Containing Beta 2-Glycoprotein I-Derived Peptides for the Prevention and/or Treatment of Vascular Disease” (Vascular Biogenics Ltd., priority 2005, published 2009).

Holding throughout (assay type): in vivo
Experiment [1] has as its system aorta tissue from ApoE-KO mice. In words: RT-PCR analysis of cytokine expression in aorta. The note with it: oral 100 μg/mouse, 5 times every other day; male ApoE-KO mice. As to the method: RT-PCR analysis of cytokine expression: 7-9 week old male ApoE-KO mice were tolerized by oral administration of β2GPI in 5 feedings, every other day, of human β2GPI (100 μg/mouse) or PBS, as control, by gavage, as detailed hereinabove. Three days following the oral administration of β2GPI, the mice were sacrificed, aortas collected and processed for RT-PCR analysis of the expression of anti-inflammatory Th2 type cytokine IL-10 and the proinflammatory Th1-type cytokine IFN-γ. The RT-PCR analysis was performed according to the protocol as described in detail by Colle et al (Journal of Immunol Methods 1997; 175-184). Briefly, RNA was extracted from the aortal tissue and reverse transcribed according to well-known, standard protocols, and the transcription products subjected to PCR amplification using the following primers: IL-10-forward primer 5′ […] 3′ (SEQ ID NO: 1), located at nucleotide positions 256-278 of IL-10 (GenBank Accession No. NM 010548 (SEQ ID NO: 2)) and reverse primer 5′[…] 3′ (SEQ ID NO: 3), located at nucleotide positions 532-556 of IL-10 (GenBank Accession No. NM 010548 (SEQ ID NO: 2)); IFN-γ-forward primer 5′ […] 3′ (SEQ ID NO: 4), located at nucleotide positions 372-397 of IFN-γ (GenBank Accession No. NM 008337 (SEQ ID NO: 5)), reverse primer 5′ […] 3′ (SEQ ID NO: 6), located at nucleotide positions 804-827 of IFN-γ (GenBank Accession No. NM 008337 (SEQ ID NO: 5)); and β-actin-forward primer 5′ […] 3′ (SEQ ID NO: 7), located at nucleotide positions 230-252 of β-actin (GenBank Accession No. NM 007393 (SEQ ID NO: 8)), and reverse primer 5′ […] 3′ (SEQ ID NO: 9), located at nucleotide positions […] of β-actin (GenBank Accession No. NM 007393 (SEQ ID NO: 8)). The resultant amplified IL-10, IFN-γ and β-actin transcripts were separated by electrophoresis on an agarose gel, and visualized by ehtidium bromide staining.
Male ApoE-KO mice 7-9 weeks of age were treated by oral administration of human β2GPI (100 μg/mouse) or PBS, as control, by gavage, as detailed hereinabove, 5 times, on every other day. […]

The subject of experiment [2] is LDL-RD mice. In words: Aortic sinus lesion area after oral administration, Western diet. The note with it: for Aortic sinus lesion (μm^2): End, mean ± S.E. As to the method: Oral Tolerance: For comparison, oral tolerance to plaque-associated molecules was induced by feeding […] of antigen every other day (for a detailed account of induction of oral tolerance, see U.S. patent application Ser. No. 09/806,400 to Shoenfeld et al filed Sep. 30, 1999), in a similar regimen to the nasal tolerance. LDL-RD mice were fed by a nasogastric tube, five doses (every other day) of human or bovine β2GPI in PBS in two different concentrations (500 and 50 μg/dose).
Oral tolerance to β2GPI-derived peptides, alone or in combination was induced by feeding 100 μg of the peptides (prepared in PBS, 0.2 ml), as detailed hereinabove, every other day for a total of 5 doses of 100 μg. One day following the last feeding, all mice were switched from chow-diet to an atherogenic “Western” diet and sacrificed five weeks later.
(§1) Assessment of Atherosclerosis: Quantification of atherosclerotic fatty streak lesions was done by calculating the lesion size in the aortic sinus as previously described (16) and by calculating the lesion size in the aorta. Briefly, after perfusion with saline Tris EDTA, the heart and the aorta were removed from the animals and the peripheral fat cleaned carefully. The upper section of the heart was embedded in OCT medium (10.24% w/w polyvinyl alcohol; 4.26% w/w polyethylene glycol; 85.50% w/w nonreactive ingredients) and frozen. Every other section (10 μm thick) throughout the aortic sinus (400 μm) was taken for analysis. The distal portion of the aortic sinus was recognized by the three valve cusps that are the junctions of the aorta to the heart. […] Lesion areas per section were scored on a grid (17) by an observer counting unidentified, numbered specimens. The aorta was dissected from the heart and surrounding adventitious tissue was removed. Fixation of the aorta and Sudan staining of the vessels were performed as previously described (21).
LDL-receptor deficient (LDL-RD; LDLR −/−) mice created on a C57BL/6 background develop accelerated atherosclerosis when fed a high cholesterol diet, but not when fed a regular chow diet. In order to determine whether mucosal administration of the plaque antigen β2GPI could suppress atherogenic processes, LDL-RD mice were fed low, oral tolerance inducing doses of human and bovine β2GPI, and the assessed for alterations in response to diet.

The subject of experiment [3] is LDL-RD mice. In words: Aortic sinus lesion area after intraperitoneal immunization with incomplete Freund's adjuvant. Conditions: End, intraperitoneal with incomplete Freund's adjuvant, head 100 μg, mean ± S.E. The method, then: Intraperitoneal immunization with human β2GPI-derived peptides: human β2GPI-derived peptides were dissolved in PBS and mixed with equal volumes of Freund's incomplete adjuvant. […] One week following the last immunization, the diet was switched from chow to atherogenic “Western” diet for five weeks, and then the mice were sacrificed.
as §1, with “(21). […]” for “(21).”

B1: Human β2 GPI: human beta2-glycoprotein I (SEQ ID NO: 10) purified from serum (protein)
chain: MISPVLILFSSFLCHVAIAGRTCPKPDDLPFSTVVPLKTFYEPGEEITYSCKPGYVSRGGMRKFICPLTGLWPINTLKCTPRVCPFAGILENGAVRYTTFEYPNTISFSCNTGFYLNGADSAKCTEEGKWSPELPVCAPIICPPPSIPTFATLRVYKPSAGNNSLYRDTAVFECLPQHAMFGNDTITCTTHGNWTKLPECREVKCPFPSRPDNGFVNYPAKPTLYYKDKATFGCHDGYSLDGPEEIECTKLGNWSAMPSCKASCKLPVKKATVVYQGERVKIQEKFKNGMLHGDKVSFFCKNKEKKCSYTEDAQCIDGTIEVPKCFKEHSSLAFWKTDASDVKPC
For the molecule B1, in experiment [1], the “expression of IFN-γ in aorta (RT-PCR)” value is recorded as “inhibition of expression”. For the same molecule, in experiment [1], the “expression of IL-10 in aorta (RT-PCR)” value is given as “induction of expression”. The “tissue levels of β-actin gene transcripts (RT-PCR)” value in experiment [1] is reported as “without any influence”. Also, the “Aortic sinus lesion (μm^2)” value in the experiment with LDL-RD mice [2] (oral 50 μg) was 26563 ± 2370 μm^2; in the experiment with LDL-RD mice [2] (oral 100 μg) it was 30250 ± 4464 μm^2; in the experiment with LDL-RD mice [2] (oral 500 μg), 27031 ± 3387 μm^2; with LDL-RD mice [3], 36782 ± 5962 μm^2. In addition, the “reduction of atherosclerosis as compared with BSA-fed controls” value in the experiment with LDL-RD mice [2] (oral 50 μg/dose) was 45%; in the experiment on LDL-RD mice [2] (oral 500 μg/dose), 44%. The “reduction of atherosclerosis (aortic sinus lesion size) as compared with BSA- and PBS-fed controls” value in the experiment on LDL-RD mice [2] (oral 100 μg/dose, 5 doses, Western diet 5 weeks) came to 44%.
